Test [1] has as its target mature myostatin growth factor dimer (from HRV-3C cleaved proMSTN-3C) (human) (UniProt O14793). Description: SEC-MALS. A general note: In gel filtration, larger molecules generally elute earlier.
For test [2], the target named is myostatin pro-domain of the HRV-3C cleaved pro-myostatin complex (from proMSTN-3C) (human). Briefly: SEC-MALS.

For the substance “mature myostatin growth factor dimer (from HRV-3C cleaved proMSTN-3C) (from UniProt O14793 267-375) (ligand)”, the stoichiometry N in test [1] is 2. The substance also registered a stoichiometry N (pro-domains per mature GF dimer) in test [2] of 2.

The term stoichiometry N denotes the number of molecules, sites or subunits per partner or assembly.

(Values after paper doi:10.1101/153403.)
